# Patent publication US11407811B2, “Fusion protein, preparation method therefor and use thereof” (JIANGSU RONGTAI BIOTECH CO., LTD., priority 2017, dated 2022)
# Marks after values point to notes of the source that are not given here.
# B1: Protein II: IgG2-Fc linked to antiangiogenesis polypeptide EDSM-Y via a flexible linker; SEQ ID NO: 17 (protein)
# chain: ERKCCVECPPCPAPPVAGPSVFLFPPKPKDTLMISRTPEVTCVVVDVSHEDPEVQFNWYVDGVEVHNAKTKPREEQFNSTFRVVSVLTVVHQDWLNGKEYKCKVSNKGLPAPIEKTISKTKGQPREPQVYTLPPSREEMTKNQVSLTCLVKGFYPSDISVEWESNGQPENNYKTTPPMLDSDGSFFLYSKLTVDKSRWQQGNVFSCSVMHEALHNHYTQKSLSLSPGKGGGGSGGGGSGGGGSFQPVLHLVALNSPLSGGMRGIRGADFQCFQQARAVGLAGTFRAGGGGRGD
# Experiments:
# human glioma U87 = test: MTT assay, proliferation of human glioma U87; format: cell-based
# Procedure: (§1) The MTT assay was used to detect the inhibitory effect of the integrin blocker fusion protein obtained in Example 1 on the proliferation of various tumor cells, including melanoma cell B16F10, gastric cancer cell MGC-803, lung cancer cell A549, liver cancer cell Hep-G2, breast cancer cell MDA-MB-231, colon cancer cell HCT-116, human glioma U87, and cervical cancer cell Hela.
# (§2) The tumor cells were cultured in a 5% CO2 incubator at 37° C. to a density of 90% or more, and collected by trypsinization. The cells were resuspended in the culture liquid and counted under a microscope. The cell concentration was adjusted to 3.0×10^4 cells/mL. The cell suspension was inoculated into a 96-well plate at 100 μL per well and cultured overnight in a 5% CO2 incubator at 37° C. […] After the cells were fully adhered, each dilution was added to a 96-well plate at 100 μL per well, respectively. […] 20 μL of 5 mg/mL MTT was added to each well of a 96-well plate, and incubation was continued for 4 hours. The medium was aspirated and 100 μL of DMSO per well were added to dissolve. The absorbance was measured at 570 nm with a microplate reader with a reference wavelength of 630 nm, and the proliferation inhibition (PI) was calculated. The formula is as follows: […]
# (§3) where Ntest is the OD value of the test group and Ncontrol is the OD value of the blank control group.
# (§4) The test was repeated 5 times independently. The results obtained from the test were calculated as mean±SD, and statistical t-test was performed. P<0.05 was considered as a significant difference, and P<0.01 was considered as an extremely significant difference.
# [1] = tested on: cervical cancer cell Hela; test: MTT assay, proliferation of cervical cancer cell Hela; format: cell-based
# Procedure: as §1, §2, §3, §4
# [2] = tested on: retinal blood vessels in OIR mice; test: Retinal blood vessels in OIR mice; format: in vivo; conditions: dose 64 μg, injected into the vitreous body on day 13, evaluated on day 17
# From the text: Establishment of the OIR model: young mice and their mothers were exposed to 75% hyperoxic environment from day 7 to day 12 after birth of C57/B16 mice so that capillaries in the central retina rapidly disappeared. On day 12, the mice were returned to indoor air and the retinal blood vessels exposed to hyperoxia rapidly disappeared, which caused extensive abnormal neovascularization, and the central part of the retina remained largely avascular for a long time. After the blood vessels disappeared completely, the fusion protein (administration group, the doses of fusion protein I, protein II, protein III, protein IV, and protein V were all 64 μg) or physiological saline (negative group) was injected into the vitreous body on day 13. Retinal vessels were evaluated on day 17 (labeled as unclosed vessels, […] of Texas Red-labeled tomato lectin was injected into the left ventricle and cycled for 5 minutes).
# [3] = tested on: toe swelling in rat induced by carrageenan; test: Acute inflammation of toe swelling in rat induced by carrageenan; format: in vivo; conditions: for Swelling degree 1 h: 1 h after carrageenan; for Swelling degree 1 h / Swelling degree 3 h / Swelling degree 5 h / Swelling degree 7 h: rat foot; for Swelling degree 3 h: 3 h after carrageenan; for Swelling degree 5 h: 5 h after carrageenan; for Swelling degree 7 h: 7 h after carrageenan
# Procedure: 80 SD rats were randomly divided into 8 groups with 10 mice for each group. […] The drug was administered once by injection, and the model group was given an equal volume of physiological saline and fed normally. On the third day, 0.1 mL of 1% carrageenan was injected subcutaneously into the right hind toes of the rats to induce inflammation. The foot volume was measured at 1 h, 3 h, 5 h, and 7 h after inflammation. The swelling degree of the foot was calculated according to the following formula: the swelling degree of the foot (mL)=the volume of the foot after inflammation—the volume before inflammation. The number of milliliters of spilled liquid was recorded (method: the protruding point of the right joint was circled with a ballpoint pen and used as a measurement mark, and the right hind feet of the rat were sequentially placed in the volume measuring device, so that the hind limbs were exposed outside the cylinder, and the depth of the immersion was limited to the overlap of the circle and the liquid level. After the foot entered the liquid, the liquid level was raised, and the volume of the spilled liquid was the volume of the right hind foot of the rat, and the normal volume of the right hind foot of each rat is sequentially determined).
# [4] = tested on: gastric cancer cell MGC-803; test: MTT assay, proliferation of gastric cancer cell MGC-803; format: cell-based
# Procedure: as §1, §2, §3, §4
# [5] = dose 64 μg/mL, listed as protein II
molecule,measurement,setting,value
B1,A570 nm/A630 nm,human glioma U87; dose 1 μg/mL,0.6788 ± 0.0374
same,PI (%),human glioma U87; dose 1 μg/mL,3.01%
same,A570 nm/A630 nm,human glioma U87; dose 2 μg/mL,0.6523 ± 0.0405
same,PI (%),human glioma U87; dose 2 μg/mL,6.80%
same,A570 nm/A630 nm,human glioma U87; dose 4 μg/mL,0.6021 ± 0.0233
same,PI (%),human glioma U87; dose 4 μg/mL,13.97%
same,A570 nm/A630 nm,human glioma U87; dose 8 μg/mL,0.5423 ± 0.0357
same,PI (%),human glioma U87; dose 8 μg/mL,22.52%
same,A570 nm/A630 nm,human glioma U87; dose 16 μg/mL,0.5006 ± 0.0282
same,PI (%),human glioma U87; dose 16 μg/mL,28.48%
same,A570 nm/A630 nm,human glioma U87; dose 32 μg/mL,0.4652 ± 0.0249
same,PI (%),human glioma U87; dose 32 μg/mL,33.53%
same,A570 nm/A630 nm,human glioma U87; dose 64 μg/mL,0.4080 ± 0.0366
same,PI (%),human glioma U87; dose 64 μg/mL,41.71%
same,PI (%),human glioma U87; [5],about 50%
same,A570 nm/A630 nm,human glioma U87; dose 128 μg/mL,0.3143 ± 0.0279
same,PI (%),human glioma U87; dose 128 μg/mL,55.09%
same,A570 nm/A630 nm,human glioma U87; dose 256 μg/mL,0.2222 ± 0.0316
same,PI (%),human glioma U87; dose 256 μg/mL,68.25%
same,A570 nm/A630 nm,[1]; dose 1 μg/mL,0.7798 ± 0.0386
same,PI (%),[1]; dose 1 μg/mL,2.43%
same,A570 nm/A630 nm,[1]; dose 2 μg/mL,0.7412 ± 0.0407
same,PI (%),[1]; dose 2 μg/mL,7.26%
same,A570 nm/A630 nm,[1]; dose 4 μg/mL,0.6946 ± 0.0272
same,PI (%),[1]; dose 4 μg/mL,13.09%
same,A570 nm/A630 nm,[1]; dose 8 μg/mL,0.6312 ± 0.0313
same,PI (%),[1]; dose 8 μg/mL,21.02%
same,A570 nm/A630 nm,[1]; dose 16 μg/mL,0.5418 ± 0.0286
same,PI (%),[1]; dose 16 μg/mL,32.21%
same,A570 nm/A630 nm,[1]; dose 32 μg/mL,0.4788 ± 0.0262
same,PI (%),[1]; dose 32 μg/mL,40.09%
same,A570 nm/A630 nm,[1]; dose 64 μg/mL,0.4023 ± 0.0314
same,PI (%),[1]; dose 64 μg/mL,49.66%
same,PI (%),[1]; [5],about 45%
same,A570 nm/A630 nm,[1]; dose 128 μg/mL,0.2878 ± 0.0275
same,PI (%),[1]; dose 128 μg/mL,63.99%
same,A570 nm/A630 nm,[1]; dose 256 μg/mL,0.1748 ± 0.0303
same,PI (%),[1]; dose 256 μg/mL,78.13%
same,Area (mm^2) occupied by neovascular clusters,[2],0.146 ± 0.011* mm^2
same,Reduce (%),[2],30.81%
same,Reduce (%),[2]; listed as protein II,30.81%
same,Swelling degree 1 h,[3]; 8 mg/kg,0.29 ± 0.25 mL
same,Swelling degree 3 h,[3]; 8 mg/kg,0.34 ± 0.09 mL
same,Swelling degree 5 h,[3]; 8 mg/kg,0.36 ± 0.12 mL
same,Swelling degree 7 h,[3]; 8 mg/kg,0.41 ± 0.09 mL
same,Swelling degree 1 h,[3]; 32 mg/kg,0.27 ± 0.06 mL
same,Swelling degree 3 h,[3]; 32 mg/kg,0.41 ± 0.18 mL
same,Swelling degree 5 h,[3]; 32 mg/kg,0.37 ± 0.11 mL
same,Swelling degree 7 h,[3]; 32 mg/kg,0.33 ± 0.02 mL
same,Swelling degree 1 h,[3]; 128 mg/kg,0.21 ± 0.16 mL
same,Swelling degree 3 h,[3]; 128 mg/kg,0.32 ± 0.10 mL
same,Swelling degree 5 h,[3]; 128 mg/kg,0.41 ± 0.05 mL
same,Swelling degree 7 h,[3]; 128 mg/kg,0.36 ± 0.16 mL
same,inhibition of toe swelling induced by carrageenan,[3]; high doses,could significantly inhibit toe swelling
same,inhibition of toe swelling induced by carrageenan,[3]; low dose,not significant
same,A570 nm/A630 nm,[4]; dose 1 μg/mL,1.1122 ± 0.0374
same,PI (%),[4]; dose 1 μg/mL,8.98%
same,A570 nm/A630 nm,[4]; dose 2 μg/mL,1.0149 ± 0.0253
same,PI (%),[4]; dose 2 μg/mL,16.94%
same,A570 nm/A630 nm,[4]; dose 4 μg/mL,0.8231 ± 0.0396
same,PI (%),[4]; dose 4 μg/mL,32.64%
same,A570 nm/A630 nm,[4]; dose 8 μg/mL,0.7231 ± 0.0215
same,PI (%),[4]; dose 8 μg/mL,40.82%
same,PI (%),"[4]; dose 8 μg/mL, listed as protein II",about 40%
same,A570 nm/A630 nm,[4]; dose 16 μg/mL,0.5216 ± 0.0192
same,PI (%),[4]; dose 16 μg/mL,57.31%
same,A570 nm/A630 nm,[4]; dose 32 μg/mL,0.4398 ± 0.0347
same,PI (%),[4]; dose 32 μg/mL,64.01%
same,A570 nm/A630 nm,[4]; dose 64 μg/mL,0.3378 ± 0.0286
same,PI (%),[4]; dose 64 μg/mL,72.35%
same,A570 nm/A630 nm,[4]; dose 128 μg/mL,0.2203 ± 0.0147
same,PI (%),[4]; dose 128 μg/mL,81.97%
same,A570 nm/A630 nm,[4]; dose 256 μg/mL,0.0987 ± 0.0159
same,PI (%),[4]; dose 256 μg/mL,91.92%
